Source: US20210301003A1 (Eli Lilly, published 2021)
Blank lines part the entries; values can stand above or below the molecule they belong to.

Key:
[1] = molecular target: β-amyloid peptide (1-42) conjugated to BSA (Aβ1-42-Cys-BSA conjugate) (bovine); assay: competitive ELISA on Aβ1-42-BSA against biotinylated Mu266 (0.3 µg/ml), second set of three experiments
[2] = molecular target: β-amyloid peptide (1-42) conjugated to BSA (Aβ1-42-Cys-BSA conjugate) (bovine); assay: competitive ELISA on Aβ1-42-BSA against biotinylated Mu266 (0.3 µg/ml), first set of three experiments
Aβ 1-40 peptide (human) = assay: KinExA 3000 equilibrium analysis, 37 C, Fab with serially diluted human soluble Abeta (1-40)
[3] = molecular target: T1, β-amyloid peptide (1-42) conjugated to BSA (Aβ1-42-Cys-BSA conjugate) (bovine, maleimide-activated; Cys43 coupled to maleimide-activated bovine serum albumin); assay: competitive ELISA on Aβ1-42-BSA against biotinylated Mu266 (0.3 µg/ml), first set of three experiments
T1 construct: Coated on ELISA plates at 10 µg/mL; also called Aβ1-42-BSA conjugate; Aβ1-42-Cys43
Method: (§1) The Aβ142-BSA conjugate was prepared by dissolving 7.5 mg of Aβ₁₋₄₂-Cys₄₃ (C-terminal cysteine Aβ₁₋₄₂, AnaSpec) in 500 μL of dimethylsulfoxide, and then immediately adding 1,500 μL of distilled water. Two (2) milligrams of maleimide-activated bovine serum albumin (Pierce) was dissolved in 200 μL of distilled water. The two solutions were combined, thoroughly mixed, and allowed to stand at room temperature for two (2) hours. A gel chromatography column was used to separate unreacted peptide from Aβ₁₋₄₂-Cys-BSA conjugate.
(§2) After washing the wells with phosphate buffered saline (PBS) containing 0.1% Tween 20 (Washing Buffer) using an ELISA plate washer, the wells were blocked by adding 300 μL of SuperBlock reagent (Pierce) per well. After 30 minutes of blocking, the wells were washed Washing Buffer and excess liquid was removed.
(§3) As a background control, 100 μl of ELISA Buffer was added. The ELISA plate was incubated at room temperature for 90 min. After washing the wells with Washing Buffer, 100 μl of 1 μg/ml HRP-conjugated streptavidin (Cat #21124, Pierce) was added to each well. […] Absorbance was read at 415 nm. The absorbances were plotted against the log of the competitor concentration, curves were fit to the data points (using Prism) and the IC50 was determined for each antibody using methods well-known in the art.

[4] = molecular target: T1, β-amyloid peptide (1-42) conjugated to …; assay: competitive ELISA on Aβ1-42-BSA against biotinylated Mu266 (0.3 µg/ml), second set of three experiments
Method: as §1, §2, §3

- IC50 [1]: 3.87 mg/L
- IC50 [2]: 4.7 mg/L
Molecule: Mouse monoclonal antibody 266 (Mu266)

- Kd (Aβ 1-40 peptide (human)): 0.24 nM
Molecule: m266-Fab (Fab fragment of murine monoclonal antibody 266)

- IC50 [3]: 7.5 mg/L
- IC50 [4]: 4 mg/L
B1: humanized 266 antibody (Hu266) (antibody, human IgG1, kappa, V domains shown)
VH: EVQLVESGGGLVQPGGSLRLSCAASGFTFSRYSMSWVRQAPGKGLELVAQINSVGNSTYYPDTVKGRFTISRDNAKNTLYLQMNSLRAEDTAVYYCASGDYWGQGTLVTVSS
VL: DVVMTQSPLSLPVTLGQPASISCRSSQSLIYSDGNAYLHWFLQKPGQSPRLLIYKVSNRFSGVPDRFSGSGSGTDFTLKISRVEAEDVGVYYCSQSTHVPWTFGQGTKVEIKR
notes: Mature antibody expressed from pVk-Hu266 and pVg1-Hu266 in Sp2/0 cells; also called exemplified anti-Aβ antibody
